Measurements as given in paper PMC3478855.

Legend:
Assay in all cases: SPR
[1] = test system: hemagglutinin (HA) of AIV H5N1, purified (Influenza A virus H5N1); conditions: PBS 10 mM pH 7.4, temperature not stated; cited from earlier work
[2] = test system: AIV H5N9 whole virus (Influenza A virus H5N9); conditions: biotin, PBS 10 mM pH 7.4, temperature not stated
[3] = test system: inactivated AIV H1N1 whole virus (Influenza A virus H1N1); conditions: biotin, PBS 10 mM pH 7.4, temperature not stated
[4] = test system: inactivated AIV H2N2 whole virus (Influenza A virus H2N2); conditions: biotin, PBS 10 mM pH 7.4, temperature not stated
[5] = test system: inactivated AIV H5N1 whole virus (HA on virion) (Influenza A virus H5N1); conditions: biotin, PBS 10 mM pH 7.4, temperature not stated
[6] = test system: inactivated AIV H5N2 whole virus (Influenza A virus H5N2); conditions: biotin, PBS 10 mM pH 7.4, temperature not stated
[7] = test system: inactivated AIV H7N2 whole virus (Influenza A virus H7N2); conditions: biotin, PBS 10 mM pH 7.4, temperature not stated
[8] = test system: inactivated AIV H9N2 whole virus (Influenza A virus H9N2); conditions: biotin, PBS 10 mM pH 7.4, temperature not stated

Row | Sequence | Kd [1] [nM] | binding signal [2] [RI 10^-6] | binding signal [3] [RI 10^-6] | binding signal [4] [RI 10^-6] | binding signal [5] [RI 10^-6] | binding signal [6] [RI 10^-6] | binding signal [7] [RI 10^-6] | binding signal [8] [RI 10^-6]
1 | GTGTGCATGGATAGCACGTAACGGTGTAGTAGATACGTGCGGGTAGGAAGAAAGGGAAATAGTTGTCCTGTTG [H5N1 DNA aptamer, best candidate (previous study)] | 4.65 | – | – | – | – | – | – | –
2 | GTGTGCATGGATAGCACGTAACGGTGTAGTAGATACGTGCGGGTAGGAAGAAAGGGAAATAGTTGTCCTGTTG [H5N1 DNA aptamer, biotinylated (sensor)] | – | 3 | -4 | -1 | 262 | 10 | 7 | 2
